Measured values: patent publication US20130115213A1
pKd: −log10 of the molar value.

Columns and labels:
[1] = molecular target: human CD3 (TCR/CD3 complex) on the cell surface (human) (UniProt P07766); experiment: cell-based or functional assay
[2] = molecular target: human CD3 (TCR/CD3 complex) on the cell surface (human) (UniProt P07766); experiment: flow cytometry on CD3+ Jurkat cells, Lineweaver-Burk fit
[3] = molecular target: human CD3 (TCR/CD3 complex) on the cell surface (human) (UniProt P07766); experiment: cell surface retention on CD3+ Jurkat cells at 37 C; ln2/koff
[4] = molecular target: human CD3 (TCR/CD3 complex) on the cell surface (human) (UniProt P07766); experiment: cell surface retention on CD3+ Jurkat cells at 37 C; reference scFv10
[5] = molecular target: human CD3 (TCR/CD3 complex) on the cell surface (human) (UniProt P07766); experiment: cell surface retention on CD3+ Jurkat cells at 37 C, flow cytometry, one-phase exponential decay fit

Sequence of UniProt P07766 (P07766 23-207, one chain of several): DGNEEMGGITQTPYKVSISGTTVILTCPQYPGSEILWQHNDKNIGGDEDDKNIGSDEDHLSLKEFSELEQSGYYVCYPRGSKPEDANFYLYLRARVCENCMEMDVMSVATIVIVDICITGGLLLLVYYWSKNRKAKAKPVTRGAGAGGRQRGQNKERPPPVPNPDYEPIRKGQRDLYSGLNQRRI

## mAb OKT3 (Orthoclone OKT3, Cilag) (antibody)
[1]
  CD3 modulation (fraction of TCR/CD3 complexes on the surface of T cells that is lost after antibody treatment), PBMC, 24 h: > 90%
[2]
  pKd: 8.69
[3]
  t1/2: 2.59 min
[4]
  fold longer t1/2 against scFv10: 2.5 fold
[5]
  koff: 0.00447 s⁻¹
